Target: the molecule itself
Test: AUC

B1: Archaeoglobus fulgidus alanyl-tRNA synthetase (AlaRS), wild-type, full-length (enzyme, UniProt O28029 1-906, looked up)
chain: MTLDEEYLDITFLTENGFVRKRCPKCGKHFWTADPEREICGDPPCESYSFIGNPVFKKPFELDEMREYYLNFFERRGHGRIERYPVVARWRTDIYLTIASIADFQPFVTSGVAPPPANPLTISQPCIRLDDLDSVGRTGRHLTLFEMMAHHAFNYPGKEIYWKNETVAYCTELLNELGVKKEDIVYKEEPWAGGGNAGPCLEAIVGGLEVATLVFMNLEEHPEGDIEIKGARYRKMDNYIVDTGYGLERFVWASKGTPTVYDAIFPEVVDTIIDNSNVSFNREDERVRRIVAESSKLAGIMGELRGERLNQLRKSVADTVGVSVEELEGIVVPLEKVYSLADHTRCILFMLGDGLVPSNAGAGYLARLMIRRSLRLAEELELGLDLYDLVEMHKKILGFEFDVPLSTVQEILELEKERYRTTVSKGTRLVERLVERKKKLEKDDLIELYDSHGIPVELAVGIAAEKGAEVEMPKDIYAELAKRHSKAEKVQEKKITLQNEYPATEKLYYDDPTLLEFEAEVIGVEGDFVILNRSAFYPESGGQDNDVGYLIANGGKFEVVDVLEADGVVLHVVKGAKPEVGTKVKGVIDSDVRWRHMRHHSATHVLLYSLQKVLGNHVWQAGARKEFSKARLDVTHFRRPSEEEIKEIEMLANREILANKPIKWEWMDRIEAERKFGFRLYQGGVPPGRKIRVVQVGDDVQACGGTHCRSTGEIGMLKILKVESIQDGVIRFEFAAGEAAIEAVEEMERLLREASSILRVEPAKLPKTVERFFEEWKDQRKEIERLKSVIADLWADILMERAEEFDSMKVVAEVVDADMQALQKLAERLAEKGAVGCLMAKGEGKVFVVTFSGQKYDARELLREIGRVAKGSGGGRKDVAQGAVQQLLDREEMLDVIFRFLSEHEG
- stoichiometry N: 2
